In this assay the target is T1, IL-2 receptor βγ complex on pan T cells (human, UniProt P14784 27-551; P31785 23-369).
T1 sequence (looked up) 1: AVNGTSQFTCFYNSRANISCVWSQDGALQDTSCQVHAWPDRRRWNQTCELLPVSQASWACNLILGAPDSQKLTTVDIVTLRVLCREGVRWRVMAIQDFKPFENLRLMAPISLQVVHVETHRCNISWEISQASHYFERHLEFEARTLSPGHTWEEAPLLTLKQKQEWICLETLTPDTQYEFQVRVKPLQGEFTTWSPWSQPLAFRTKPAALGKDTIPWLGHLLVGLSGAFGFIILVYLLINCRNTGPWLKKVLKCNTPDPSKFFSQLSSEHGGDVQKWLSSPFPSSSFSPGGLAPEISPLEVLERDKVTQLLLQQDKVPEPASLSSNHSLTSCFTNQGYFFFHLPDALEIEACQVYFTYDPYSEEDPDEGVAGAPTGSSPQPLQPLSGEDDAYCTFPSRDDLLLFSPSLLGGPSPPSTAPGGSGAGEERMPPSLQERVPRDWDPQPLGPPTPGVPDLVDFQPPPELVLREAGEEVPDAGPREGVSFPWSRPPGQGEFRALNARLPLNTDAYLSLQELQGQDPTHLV
T1 sequence (looked up) 2: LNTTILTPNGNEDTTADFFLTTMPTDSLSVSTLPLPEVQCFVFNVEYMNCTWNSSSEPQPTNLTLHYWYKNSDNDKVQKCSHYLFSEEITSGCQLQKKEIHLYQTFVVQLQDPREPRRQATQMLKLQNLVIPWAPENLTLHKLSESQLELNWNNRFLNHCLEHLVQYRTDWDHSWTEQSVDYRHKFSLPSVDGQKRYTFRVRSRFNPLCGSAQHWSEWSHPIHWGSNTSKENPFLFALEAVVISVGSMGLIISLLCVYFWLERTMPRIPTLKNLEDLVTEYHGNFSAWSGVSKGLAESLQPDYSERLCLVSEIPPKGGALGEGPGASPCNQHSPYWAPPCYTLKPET
Nature of the assay: cell-based or functional assay.

Primed or numbered codes have the meaning given here. [ ]: non-standard residue; d: D form. Ygp″ = O-(PEG8-amino)-tyrosine (O-(8x polyethylene glycol-amino)-tyrosine); Yn3″ = O-(PEG9-azido)-tyrosine (O-(9x polyethylene glycol-azido)-tyrosine); Ygp = O-(8x polyethylene glycol-amino)-tyrosine; Yn3 = O-(9x polyethylene glycol-azido)-tyrosine; hSer = N[C@@H](CCO)C(=O)O; Nle = CCCC[C@H](N)C(=O)O

B1: CMP-118, MMP2 cleaved (ligand)
chain: APTSSSTKKTQLQLEHLLLDLQKILNGINNYKNPKLTR[Nle]L[hSer][Yn3″]KF[Ygp″][Nle]PKKATELKHLQCLEEELKPLEEVL[hSer]LAQSKNFHLRPRDLISNINVIVLELKGSETTF[hSer]CEYADETATIVEFLNRWITFSQSIISTLT
modifications: ends and bridges not checked; also: Lys23 side chain attached to cleavable peptide, MMP2-cleaved, remnant stays attached, cut site not given here
Take B1: the “Average EC50, pSTAT5 assay in pan T cells, MMP2 cleaved molecule” value (“Average EC50, pSTAT5 assay” below) turned out to be 0.9 nM.

B2: CMP-129, MMP2 cleaved (ligand)
chain: APTSSSTKKTQLQLEHLLLDLQKILNGINNYKNPKLTR[Nle]L[hSer][Yn3″]KF[Ygp″][Nle]PKKATELKHLQCLEEELKPLEEVL[hSer]LAQSKNFHLRPRDLISNINVIVLELKGSETTF[hSer]CEYADETATIVEFLNRWITFSQSIISTLT
modifications: ends and bridges not checked; also: Lys23 side chain attached via PEG9 to cleavable peptide, MMP2-cleaved, remnant stays attached, cut site not given here
Consider B2, for which the “Average EC50, pSTAT5 assay” value was determined as 1.4 nM.

B3: CMP-126, MMP2 cleaved (ligand)
chain: APTSSSTKKTQLQLEHLLLDLQKILNGINNYKNPKLTR[Nle]L[hSer][Yn3″]KF[Ygp″][Nle]PKKATELKHLQCLEEELKPLEEVL[hSer]LAQSKNFHLRPRDLISNINVIVLELKGSETTF[hSer]CEYADETATIVEFLNRWITFSQSIISTLT
modifications: ends and bridges not checked; also: Lys23 side chain attached to cleavable peptide, MMP2-cleaved, remnant stays attached, cut site not given here
As to B3, the “Average EC50, pSTAT5 assay” value amounted to 2.03 nM.

B4: CMP-128, MMP2 cleaved (ligand)
chain: APTSSSTKKTQLQLEHLLLDLQKILNGINNYKNPKLTR[Nle]L[hSer][Yn3″]KF[Ygp″][Nle]PKKATELKHLQCLEEELKPLEEVL[hSer]LAQSKNFHLRPRDLISNINVIVLELKGSETTF[hSer]CEYADETATIVEFLNRWITFSQSIISTLT
modifications: ends and bridges not checked; also: Lys23 side chain attached via PEG9 to cleavable peptide, MMP2-cleaved, remnant stays attached, cut site not given here
Take B4: the “Average EC50, pSTAT5 assay” value worked out at 3.68 nM.

B5: CMP-127, MMP2 cleaved (ligand)
chain: APTSSSTKKTQLQLEHLLLDLQKILNGINNYKNPKLTR[Nle]L[hSer][Yn3″]KF[Ygp″][Nle]PKKATELKHLQCLEEELKPLEEVL[hSer]LAQSKNFHLRPRDLISNINVIVLELKGSETTF[hSer]CEYADETATIVEFLNRWITFSQSIISTLT
modifications: ends and bridges not checked; also: Lys23 side chain attached via PEG9 to cleavable peptide, MMP2-cleaved, remnant stays attached, cut site not given here
In the case of B5, the “Average EC50, pSTAT5 assay” value is 2.43 nM.

B6: CMP-125, MMP2 cleaved (ligand)
chain: APTSSSTKKTQLQLEHLLLDLQKILNGINNYKNPKLTR[Nle]L[hSer][Yn3″]KF[Ygp″][Nle]PKKATELKHLQCLEEELKPLEEVL[hSer]LAQSKNFHLRPRDLISNINVIVLELKGSETTF[hSer]CEYADETATIVEFLNRWITFSQSIISTLT
modifications: ends and bridges not checked; also: cleavable moiety on Lys23 side chain, not given here
Take B6: the “Average EC50, pSTAT5 assay” value came to 1.73 nM.

B7: CMP-123, MMP2 cleaved (ligand)
chain: APTSSSTKKTQLQLEHLLLDLQKILNGINNYKNPKLTR[Nle]L[hSer][Yn3″]KF[Ygp″][Nle]PKKATELKHLQCLEEELKPLEEVL[hSer]LAQSKNFHLRPRDLISNINVIVLELKGSETTF[hSer]CEYADETATIVEFLNRWITFSQSIISTLT
modifications: ends and bridges not checked; also: Lys23 side chain attached via PEG9 to cleavable peptide, MMP2-cleaved, remnant stays attached, cut site not given here
Regarding B7, the “Average EC50, pSTAT5 assay” value was 2.93 nM.

B8: CMP-141, MMP2 cleaved (ligand)
chain: APTSSSTKKTQLQLEHLLLDLQKILNGINNYKNPKLTR[Nle]L[hSer][Yn3]KF[Ygp][Nle]PKKATELKHLQCLEEELKPLEEVL[hSer]LAQSKNFHLRPRDLISNINVIVLELKGSETTF[hSer]CEYADETATIVEFLNRWITFSQSIISTLT
modifications: not fully specified (residue 23); ends and bridges not checked; also: MMP2-cleaved, remnant of moiety on Lys23 side chain, not given here
As for B8, the “Average EC50, pSTAT5 assay” value is 0.8 nM.

B9: CMP-119, MMP2 cleaved (ligand)
chain: APTSSSTKKTQLQLEHLLLDLQKILNGINNYKNPKLTR[Nle]L[hSer][Yn3″]KF[Ygp″][Nle]PKKATELKHLQCLEEELKPLEEVL[hSer]LAQSKNFHLRPRDLISNINVIVLELKGSETTF[hSer]CEYADETATIVEFLNRWITFSQSIISTLT
modifications: ends and bridges not checked; also: Lys23 side chain attached to cleavable peptide, MMP2-cleaved, remnant stays attached, cut site not given here
Take B9: the “Average EC50, pSTAT5 assay” value is 0.63 nM.

B10: CMP-120, MMP2 cleaved (ligand)
chain: APTSSSTKKTQLQLEHLLLDLQKILNGINNYKNPKLTR[Nle]L[hSer][Yn3″]KF[Ygp″][Nle]PKKATELKHLQCLEEELKPLEEVL[hSer]LAQSKNFHLRPRDLISNINVIVLELKGSETTF[hSer]CEYADETATIVEFLNRWITFSQSIISTLT
modifications: ends and bridges not checked; also: Lys23 side chain attached to cleavable peptide, MMP2-cleaved, remnant stays attached, cut site not given here
Regarding B10, the “Average EC50, pSTAT5 assay” value turned out to be 0.7 nM.

B11: CMP-143, MMP2 cleaved (ligand)
chain: APTSSSTKKTQLQLEHLLLDLQKILNGINNYKNPKLTR[Nle]L[hSer][Yn3]KF[Ygp][Nle]PKKATELKHLQCLEEELKPLEEVL[hSer]LAQSKNFHLRPRDLISNINVIVLELKGSETTF[hSer]CEYADETATIVEFLNRWITFSQSIISTLT
modifications: not fully specified (residue 23); ends and bridges not checked; also: MMP2-cut remnant of cleavable moiety on Lys23 side chain, not given here
With B11, the “Average EC50, pSTAT5 assay” value was 1.99 nM.

B12: CMP-142, MMP2 cleaved (ligand)
chain: APTSSSTKKTQLQLEHLLLDLQKILNGINNYKNPKLTR[Nle]L[hSer][Yn3]KF[Ygp][Nle]PKKATELKHLQCLEEELKPLEEVL[hSer]LAQSKNFHLRPRDLISNINVIVLELKGSETTF[hSer]CEYADETATIVEFLNRWITFSQSIISTLT
modifications: not fully specified (residue 23); ends and bridges not checked; also: MMP2-cut remnant of cleavable moiety on Lys23 side chain, not given here
As for B12, the “Average EC50, pSTAT5 assay” value turned out to be 0.56 nM.

B13: CMP-124, MMP2 cleaved (ligand)
chain: APTSSSTKKTQLQLEHLLLDLQKILNGINNYKNPKLTR[Nle]L[hSer][Yn3″]KF[Ygp″][Nle]PKKATELKHLQCLEEELKPLEEVL[hSer]LAQSKNFHLRPRDLISNINVIVLELKGSETTF[hSer]CEYADETATIVEFLNRWITFSQSIISTLT
modifications: ends and bridges not checked; also: Lys23 side chain attached to cleavable peptide, MMP2-cleaved, remnant stays attached, cut site not given here
Turning to B13, the “Average EC50, pSTAT5 assay” value came out at 2.07 nM.

B14: CMP-122, MMP2 cleaved (ligand)
chain: APTSSSTKKTQLQLEHLLLDLQKILNGINNYKNPKLTR[Nle]L[hSer][Yn3″]KF[Ygp″][Nle]PKKATELKHLQCLEEELKPLEEVL[hSer]LAQSKNFHLRPRDLISNINVIVLELKGSETTF[hSer]CEYADETATIVEFLNRWITFSQSIISTLT
modifications: ends and bridges not checked; also: Lys23 side chain attached via PEG9 to cleavable peptide, MMP2-cleaved, remnant stays attached, cut site not given here
As for B14, the “Average EC50, pSTAT5 assay” value came out at 3.55 nM.

Values taken from patent publication US20240417436A1 (BRIGHT PEAK THERAPEUTICS, published 2024).
